Results on 30 sequences are retold here after the nanobody polyreactivity screen of Harvey et al. (2022).

This data set is described as follows: yeast display, Sf9 membrane polyspecificity reagent, FACS + sequencing; frameworks hold sequencing errors. A digest of the protocol: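 Using colony PCR, genes from sorted yeast display clones were amplified, then sequenced on MiSeq at 2 × 250 and filtered by CDR length. The clones had been stained with 10% biotinylated, detergent-solubilized Sf9 membrane reagent for 1 hour at 4 °C and sorted by FACS into low and high (top ~1%) gates on anti-HA and streptavidin fluorescence. Polyreactivity labels come from the gate of origin.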
As to “QVQLVESGGGLVQAGGSLRLSCAASGLTFYKNAMGWYRQAPGKERELVAVISSSGGSTYYADSVKGRFTISRDNAKNTVYLQMYSLKPEDSAVYYFARDLYTEYRWGRLTYDYRGQGTQVTVSS”, the “polyreactivity (PSR sort gate)” value is reported as “low polyreactivity”. The entry for “QVQLVESGGGLVQAGGSLLLSCAASGSTCSYYAMGWYRQAPGKERQLVAAINRSGGSTYYADSVMGRFTISRDNAKNTVYVQMNSLKPEDTAVYSCAALRSKTVSYDRYDYWGQGTQVTVSS” is “high polyreactivity”; for “QVQLVESGGGLVQAGGSLRLSCAASGSTFVGNAKGWYRQAPGKERELVAAITGGGGSTYYADSVKGRFTISRDNAKNTVYLQMNSLKPEDTAVYYCARDRTDYYVCYVRYYYWGQGTQVTVSS” it is “low polyreactivity”. “QVQLVESGGGLVQAGGSLRLTCAASGIIFGHYAMGWYRQAPGKERELVAAITASSGNTYYADSVKGRFTISRDNAKNTVYLQMNSLKPEDTAVYYCAAVSYSSYRYDYWGQGTQVTVSS”: the “polyreactivity (PSR sort gate)” value is reported as “high polyreactivity”. For the sequence “QVQHVESGGGLVQAGGSLRLSCAASGFIFRRYAMGWYRQAPGKERELVAAISWRSGSTYYADSVKGRFTISRDNAKNTVYLQMNSLKPEDTAVYYCAAKDQATYQLNYWGQGTQVTVSS”, the “polyreactivity (PSR sort gate)” value is on record as “high polyreactivity”. As for “QVQLVESGGGLVQAGGSLRLSCAASGTFGLYAMGWYRQAPGKERELVAAIRARGGSTYYADSVKGRFTISRDNAKNTLYLQKNSLKPEETAVYYCAAEFWDVALARKQWYDYWGQGTQVTVSS”, the entry is “high polyreactivity”.

With “QVQLVESGGGLVQAGGSLRLSCAASGFTFWRNVMGWYRQAPGKERELVAAITRSGGSTYYADSVKGRFTISRDNAKNTVYLQMNSLKPEDTAVYYCNAVRHGGYDYLGQGTQVTVSS”, the “polyreactivity (PSR sort gate)” value is on record as “high polyreactivity”. As for “QVQLVESGGGLVQAGGSLRLSCAASGSTFGTNAMGWYRQAPGKERELVAAITYSGGRTYYADSVKGRFTISRDNAKNTVYLQMNSLKPEDTAVYYCAATFGFFYYQYEYWGLGTQVTVSS”, the entry is “low polyreactivity”. The entry for “QVQLVESGGGLVQAGGSLRLSCAASGRTFKTYAMGWYRQAPGKERELVAAISRDGRTYYADSVKGRFTISRDNAMNTVYLQMNSLKPEDTAVYYCNKRSYRKGDYWGQGTQVTVSS” is “low polyreactivity”; for “QVQLVESGGGLVQAGGSLRLSCAASGNTFGPYAMGWYRQAPGKERELVAAITWTDTSTHYADSVKGRFTISRDNAKNTVYLQMNSLKPEDTAVYYCARVYYVNTYRYRAGYYYWGQRTQVTVSS” it is “high polyreactivity”; for “QVQLVESGGGIVQAGCSLRLSCAPSGSTFKNNAMGWDRQAPGKEREFVASIYKRGGSTYYADSVKGRFTISRDNAKNTVYLQKKSLTPEDTAVYYCAKTYWSYGWSHGDYGEVDYWGQGTQVNVSS” it is “high polyreactivity”. Consider “QVQLVESGGGLVQAGGSLRLSCAASGRILVPYAMGWYRQAPGKERELVDAISSGGSTKYADSVKGRFTISRDNAKNTVYLQMNSLKPEDTAVYYCASRIGSGSYPYPRYDYWGQGTQVTVSS”, for which the “polyreactivity (PSR sort gate)” value is listed as “high polyreactivity”.

As to “QVQIVESGGGLVQAGGSLRLSCAASGSTFKWYAMGWYRQSTGKERQLVAAITSTDSTTYADSLKGRFTISRDNAKNTVYLHMNSLKPEDTAVYYCNRLYYHWYGGLDYWGLGTQVTVSS”, the “polyreactivity (PSR sort gate)” value is on record as “high polyreactivity”. As for “QVQLVESGGGLVQAGGSLRLSCAASGRTFYYAMGWYRQAPGKERELVAAITSSSSTYYADSVKGRFTISRDNAKNTVYLQLNSVKPEDTAVYYCNAADDPYGSPSYGYDYWGQGTQVTVSS”, the entry is “low polyreactivity”.

For “QVQLVESGGGLVQAGGSLPLSCAASGRTFLYNAMGWYRQAPGKERELVAAITKSGGSTYYADSVKGRFTISLDNAKNTVYLQMNTLKPEDTAVYYCAAARRYAYTGGYWGQGTQVTVSS”, the “polyreactivity (PSR sort gate)” value is on record as “high polyreactivity”. As for “QVQLQESGGGLVQVGGSQRLSCAASGNIFYNYAMVWYRNAQGKEREFDATIKNGTSINYADSVKGRFTISRDNAKNTVYLQMNSLTPEDTAVYYCAADLSWTDNLFYWGQGTQVTVSS”, the entry is “low polyreactivity”. As for “QVQLVESAGGLVQAGGSLRLSCAASGFTFVYYVMGWYRQAPGKERELVAAINAGGGSTYYADSVKGRFTISRDNAKNTVYLQMNSLIPEDTAVYYCIARVRVRLGRNWSSYYDWGQCTQVTVSS”, the entry is “high polyreactivity”. Turning to “QVQLVDSGGGLVQAGGSLRLSCAASGSTFSYYAMGWYRQAPGKERELVAAISYSGDSTYYADTVKGRFTISRDNAKNTVYLQMNSLKPEDSAVYYCNADSPFNGNLDRYFATLDDYWGQGTQVTVSS”, the “polyreactivity (PSR sort gate)” value is on record as “low polyreactivity”. As for “QVQLVESGGGLVQAGGSLRLSCAASGRIFYYNAMGWYRQAPGKERELVAAITRSGSTNYADSVKGRFTISRDNSKNSVYLQMNSLKPEDTAVYYCAAPWRGSVFRYYSWGQGTQVTVSS”, the entry is “low polyreactivity”; as for “QVQLVESGGGLVQAGGSLRLSCAASGRTFRYNAMGWYRQAPGKERDLVAAISYSGGRTNYADSVKGRFTISRDNAKNTVYLQMNSLKPEDTAVYDCATGYAVYLSRRDYWGQGTQVTVSS”, “high polyreactivity”.

Take “QVQLVESGGGLVQAGGSLRLSCAASGLTFVDYTKGWYRQAPGNERELVAAIDWSGGSTYYADSVKGRFTISRDNAKNPVYLQMNSLKPEDTAVYYCNALRRFYSMDDYWGQGTQVTVSS”: the “polyreactivity (PSR sort gate)” value is given as “low polyreactivity”. As for “QDQQVESGGGLVQAGGSLRLSCAASGFTFRKKAKGWYRQAPGKERELVAAISASGGSTYYADSVKGRFTISRDNAKNTVYLQMNSLKPEDTDVFYCARDRSNAFNYWGQGTQVTVSS”, the entry is “high polyreactivity”. On to “QVQLVESGGGLVQAGGSLRLSCAASGSIFWYYAMGWYRQAPGKERELVASISSSGGSTYYADSVKGRFTISRDNAKNTVYLQMNSLKPEDTAVYYCAVRSPYRLSRWRVGYWGQGTQVTVSS”, for which the “polyreactivity (PSR sort gate)” value is “high polyreactivity”.

As to “QVQLVESGGGLVQAGGSLRLSCAASGFILNFYAMGWYRQAPGKERELVAAISTSGGSTYYADSVKGRFTISRDNAKNTVYLQMNSLKPEDTAGYYCAARRARTYHTSSGYRGYYYWGQGTQVTVSS”, the “polyreactivity (PSR sort gate)” value is “high polyreactivity”. As for “QVQLVESGGGLVQAGGSLRLSCAASGRTFSPYAMGWYRQAPVKERELVAAITSGGRTNYADSVKGRFTISRDNAKNTVYLQMNSLKPEDTAVYYCAARSGRYRWTRFDYWGQGTQVTVSS”, the entry is “low polyreactivity”; as for “QVQLVESGGGLVQAGGSLRLSCAASGIIFKYNAMGRYRQAPGKEREFVAAITGSGGSTYYADSVKGRFTISRDNAKNTVYLQMYSLKPEDTAVYYCARPQWRDWYGYWGQGTQVTVSS”, “low polyreactivity”; as for “QVQLVESGGGLVQAGGSLRLSCAASGRIFLLNAMGWYRQAPGKERELVARISSGRTYYADSVKGRFTISRDNAKNTVFLQMISLKPEDTAVYYCNATVSSSKFRYFYVNPYDYWGQGTQVTVSS”, “low polyreactivity”. As for “QVQLVESGGGLVQAGGSLRLSCAASGLTFSRNAMGWYRQAPGKERELVAAINWRGGRTYYADSVKGRFIISRDNAKNTVYLQMNSLKPEDTAVYYCAADPANRCMYYWGQGTQVTVSS”, the entry is “high polyreactivity”; as for “QVQLVESGGGLVQAGGSLRLSCAASGRTFGKNAMGWYRQAPGKEREFVAAITSRGGSTYYADSVKGRFTISRDYAKNTVYLQMNSLKPEDTAVYYCNREYKRPSQRTEHYYWGQGSQVTVSS”, “low polyreactivity”; as for “QVQLVESGGGLVQAGGSLRLSCAASGSTFTINAMGWYRQAPGKERELVAAISWSDVDTYYADSVKGRFTISGDTAKNTVYLQMNSLKPEDTAVYYCSAQFSYRYYTDEVGYLGQGTQVTVSS”, “high polyreactivity”.
